# Experimental data as given in US20240116985A1 (published 2024).
# Starred links: 1 amine or outer side, 2 acyl side, 3 side chain; linkers in the order of their positions; H or OH if unused. Positions of bridges follow the written chain, without caps; N, C: chain ends. Non-standard residues stand in square brackets, D forms with d. Primed or numbered codes have the meaning given here. PyrS2″ = (S)-3-amino-1-((pent-4-en-1-yloxy)carbonyl)pyrrolidine-3-carboxylic acid (stapling residue), C=CCCCOC(=O)N1CC[C@@](N[*:1])(C(=O)[*:2])C1; B5(16) = 2-amino-2-(pent-4-en-1-yl)hept-6-enoic acid = 2,2-bis(4-pentenyl)glycine (stitching residue), C=CCCCC(CCCC=C)(N[*:1])C(=O)[*:2]; B5(4) = 2,2-bis(4-pentenyl)glycine = 2-amino-2-(pent-4-en-1-yl)hept-6-enoic acid (stitching residue), C=CCCCC(CCCC=C)(N[*:1])C(=O)[*:2]; B5(21) = 2-amino-2-(pent-4-en-1-yl)hept-6-enoic acid, bis(4-pentenyl)glycine (stitching residue), C=CCCCC(CCCC=C)(N[*:1])C(=O)[*:2]; SeN = (S)-5-(((allyloxy)carbonyl)(methyl)amino)-2-amino-2-methylpentanoic acid, C=CCOC(=O)N(C)CCC[C@](C)(N[*:1])C(=O)[*:2]; Phe(3,5-F2) = N[C@@H](Cc1cc(F)cc(F)c1)C(=O)O; Phe(2-Cl) = N[C@@H](Cc1ccccc1Cl)C(=O)O; Phe(3-F) = N[C@@H](Cc1cccc(F)c1)C(=O)O; Phe(4-F) = N[C@@H](Cc1ccc(F)cc1)C(=O)O; Bta = N[C@@H](Cc1csc2ccccc12)C(=O)O; αAllylPro = C=CC[C@@]1(C(=O)O)CCCN1; S8 = C=CCCCCCC[C@](C)(N)C(=O)O
# T1: full-length beta-Catenin (Uniprot ID P35222) (Homo sapiens (Human), UniProt P35222 1-781)
# T1 construct: also called bCat
# T1 sequence: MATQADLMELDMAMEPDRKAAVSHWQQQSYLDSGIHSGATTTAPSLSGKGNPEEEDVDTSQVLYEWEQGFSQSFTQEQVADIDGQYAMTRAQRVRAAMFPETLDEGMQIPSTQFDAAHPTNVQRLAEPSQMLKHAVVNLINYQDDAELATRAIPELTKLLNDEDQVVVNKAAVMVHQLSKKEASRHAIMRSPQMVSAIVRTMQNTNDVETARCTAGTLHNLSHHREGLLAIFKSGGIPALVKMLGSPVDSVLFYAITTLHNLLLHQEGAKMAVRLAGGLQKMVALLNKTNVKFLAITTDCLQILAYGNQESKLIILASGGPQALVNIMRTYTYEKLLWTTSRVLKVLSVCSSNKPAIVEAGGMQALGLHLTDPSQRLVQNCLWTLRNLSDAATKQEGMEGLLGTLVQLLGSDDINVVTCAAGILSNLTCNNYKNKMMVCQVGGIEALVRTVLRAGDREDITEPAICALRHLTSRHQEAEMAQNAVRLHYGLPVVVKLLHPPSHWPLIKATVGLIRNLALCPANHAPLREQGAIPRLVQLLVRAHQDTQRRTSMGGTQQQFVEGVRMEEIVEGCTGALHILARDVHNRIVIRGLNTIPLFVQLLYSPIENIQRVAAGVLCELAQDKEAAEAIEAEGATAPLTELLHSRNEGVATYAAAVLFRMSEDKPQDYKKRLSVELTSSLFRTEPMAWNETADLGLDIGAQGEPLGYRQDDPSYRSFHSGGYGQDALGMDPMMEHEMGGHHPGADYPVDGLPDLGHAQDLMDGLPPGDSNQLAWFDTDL
# T2: beta-Catenin (full-length, Uniprot ID P35222) (Homo sapiens (Human), UniProt P35222 1-781)
# T2 construct: also called bCat; B-Catenin
# T2 sequence: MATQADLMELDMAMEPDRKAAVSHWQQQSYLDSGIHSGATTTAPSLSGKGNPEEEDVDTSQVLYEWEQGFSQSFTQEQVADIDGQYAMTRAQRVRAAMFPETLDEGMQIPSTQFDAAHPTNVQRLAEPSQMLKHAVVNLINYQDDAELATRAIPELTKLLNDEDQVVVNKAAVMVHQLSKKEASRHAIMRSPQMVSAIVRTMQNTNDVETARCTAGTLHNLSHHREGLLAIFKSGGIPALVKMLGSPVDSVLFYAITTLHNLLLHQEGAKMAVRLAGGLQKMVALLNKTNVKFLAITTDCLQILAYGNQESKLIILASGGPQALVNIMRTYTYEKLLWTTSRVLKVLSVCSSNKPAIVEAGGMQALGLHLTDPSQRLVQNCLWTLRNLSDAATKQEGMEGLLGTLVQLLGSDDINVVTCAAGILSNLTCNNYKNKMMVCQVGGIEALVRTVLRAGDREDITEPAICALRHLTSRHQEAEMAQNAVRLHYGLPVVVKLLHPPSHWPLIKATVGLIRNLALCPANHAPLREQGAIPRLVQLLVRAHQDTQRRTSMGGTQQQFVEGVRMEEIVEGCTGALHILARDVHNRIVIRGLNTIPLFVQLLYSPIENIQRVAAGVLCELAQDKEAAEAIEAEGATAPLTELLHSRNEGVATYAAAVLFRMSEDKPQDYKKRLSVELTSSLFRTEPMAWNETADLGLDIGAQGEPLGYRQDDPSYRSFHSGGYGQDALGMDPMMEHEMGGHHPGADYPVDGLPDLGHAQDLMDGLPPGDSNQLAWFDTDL
# T3: full-length beta-Catenin (Uniprot ID P35222) (Homo sapiens (Human), UniProt P35222 2-781)
# T3 construct: Used full-length in both the FP and the AlphaScreen assay; also called B-Catenin; bCat
# T3 sequence: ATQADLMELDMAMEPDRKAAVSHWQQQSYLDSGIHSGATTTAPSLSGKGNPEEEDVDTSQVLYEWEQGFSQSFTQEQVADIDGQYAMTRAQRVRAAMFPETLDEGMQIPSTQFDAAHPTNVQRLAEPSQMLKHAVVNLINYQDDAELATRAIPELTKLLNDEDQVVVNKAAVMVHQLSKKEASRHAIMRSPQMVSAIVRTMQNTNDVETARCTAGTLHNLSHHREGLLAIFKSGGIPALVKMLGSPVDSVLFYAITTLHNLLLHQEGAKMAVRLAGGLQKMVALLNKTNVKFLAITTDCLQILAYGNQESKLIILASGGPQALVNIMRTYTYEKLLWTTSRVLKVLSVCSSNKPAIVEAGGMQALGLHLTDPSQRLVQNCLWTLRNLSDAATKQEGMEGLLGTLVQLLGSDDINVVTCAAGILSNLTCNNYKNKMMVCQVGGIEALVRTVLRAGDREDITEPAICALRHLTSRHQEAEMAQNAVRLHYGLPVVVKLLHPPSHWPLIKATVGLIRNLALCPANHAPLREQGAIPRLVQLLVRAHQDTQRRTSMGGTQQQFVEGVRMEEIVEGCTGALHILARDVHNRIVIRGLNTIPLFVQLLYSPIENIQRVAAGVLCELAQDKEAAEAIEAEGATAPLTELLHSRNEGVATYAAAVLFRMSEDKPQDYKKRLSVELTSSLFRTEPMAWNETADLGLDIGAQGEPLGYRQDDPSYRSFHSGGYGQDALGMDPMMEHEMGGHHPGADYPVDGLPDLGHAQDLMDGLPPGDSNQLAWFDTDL
# Experiments:
# [1] = target: T1, full-length beta-Catenin (Uniprot ID …); experiment: fluorescence polarization competition; full-length beta-catenin; competitor 5FAM-TCF4(10-53) probe
# Description: (§1) The plate was incubated protected from light for 60 minutes at 20° C. prior to read. Reads were performed on a CLARIOstar plate reader (BMG Labtech) in duplicate, and data were fitted to a 1:1 binding model with hill slope using an in-house script. All provided concentrations are final concentrations.
# [2] = target: T2, beta-Catenin (full-length, Uniprot ID …); experiment: fluorescence polarization competition: peptide titrated against 10 nM full-length beta-catenin + 10 nM 5FAM-labeled TCF4 residues 10-53 probe
# Description: as §1
# [3] = target: T3, full-length beta-Catenin (Uniprot ID …); experiment: AlphaScreen competition; full-length beta-catenin, biotin-TCF4(10-53) probe
# Description: as §1, with “Equal volume of the titrated peptide was added to the” for “The”, “and” for “was”, “incubated for 15 minutes at 20° C. Then 4 uL of donor and 4 uL acceptor beads at 10 ug/mL were added to the plate, for a 16 uL reaction pool and” for “incubated”
# [4] = target: T3, full-length beta-Catenin (Uniprot ID …); experiment: fluorescence polarization competition; full-length beta-catenin, 5FAM-TCF4(10-53) probe
# Description: as §1
Binder,EC50 [1] [nM],IC50 [2] [nM],other results
"Ac-[αAllylPro]DF[B5(4)]DDLLFT[PyrS2″][Phe(2-Cl)][Bta]S-NH2 (staple 1-4, 4-11, stapled peptide) [I-1158]",168,–,–
"Ac-[αAllylPro]DF[B5(16)]DDLAFT[PyrS2″][Phe(2-Cl)][Bta]S-NH2 (staple 1-4, 4-11, stapled peptide) [I-1156]",14,–,–
"Ac-[αAllylPro]DA[B5(21)]DDAAFV[SeN]FWQ-NH2 (staple 1-4, 4-11, Stapled (stitched) peptide; also called Ac-PL3-Asp-Ala-B5-Asp-Asp-Ala-Ala-Phe-Val-SeN-Phe-Trp-Gln-NH2) [I-54]",–,–,EC50 [3]: 482 nM; EC50 [4]: 3190 nM
"Ac-[αAllylPro]DA[B5(4)]DDAAFV[S8][Phe(4-F)]WQ-NH2 (staple 1-4, 4-11, Stapled peptide) [I-261: Ac-PL3-Asp-Ala-B5-Asp-Asp-Ala-Ala-Phe-Val-S8-4FF-Trp-Gln-NH2]",–,5000,–
"Ac-[αAllylPro]DA[B5(4)]DEAA[Phe(3,5-F2)]V[S8]FWQ-NH2 (staple 1-4, 4-11, Stapled (stitched) peptide) [I-219: Ac-PL3-Asp-Ala-B5-Asp-Glu-Ala-Ala-35FF-Val-S8-Phe-Trp-Gln-NH2]",–,2860,–

# Now from value to binder, other results behind:
EC50 [1] [nM],IC50 [2] [nM],Binder,other results
36,–,"Ac-[αAllylPro]DF[B5(4)]DDALFT[PyrS2″][Phe(2-Cl)][Bta]S-NH2 (staple 1-4, 4-11, stapled peptide) [I-1157]",–
–,5000,"XDAXDDAAFVXFWQ (not fully specified; N-terminal Ac; PL3 at position 1; B5 at position 4; S8 at position 11; 4F3MeF at position 12; C-terminal NH2; stapled by olefin metathesis (PL3-B5 and B5-S8), These are separate isomer compositions) [I-254: Ac-PL3-Asp-Ala-B5-Asp-Asp-Ala-Ala-Phe-Val-S8-4F3MeF-Trp-Gln-NH2]",–
–,5000,"Ac-[αAllylPro]DA[B5(4)]DDAA[Phe(3-F)]V[S8]FWQ-NH2 (staple 1-4, 4-11; not fully specified; printed as Ac-PL3-Asp-Ala-B5-Asp-Asp-Ala-Ala-3FF-Val-S8-Phe-Trp-Gln-NH2, It is the earlier-eluting isomer composition) [I-264: Ac-PL3-Asp-Ala-B5-Asp-Asp-Ala-Ala-3FF-Val-S8-Phe-Trp-Gln-NH2]",–
